Positions count from the first letter of the chain named. Names and notes keep the numbering of the source. One block for each binder: values may come before it.
Experiments:
Assay in all cases: SPR; Biacore 8K; EGFR extracellular domain immobilised on CM5 chip by amine coupling (~1000 RU); VHHs injected in two-fold serial dilutions at 30 μl/min; 25°C; PBS with 0.005% Tween20
Settings in all cases: both partners purified
[1] = biological target: T1, extracellular domain of epidermal growth factor receptor (EGFR), residues 1–618 (Homo sapiens (; human EGFR in …, UniProt P00533)
T1 construct: Epidermal growth factor receptor (EGFR), extracellular domain, residues 1-618; also called extracellular domain of EGFR; source: Sf9 expression system (baculovirus), purified from the culture supernatant (Ni-NTA, SEC)

[2] = biological target: T1, extracellular domain of epidermal …; remark: listed apart in the source
[3] = biological target: T1, extracellular domain of epidermal …; remark: listed apart in the source

B3: 7D12‐Vob F106A (VHH)
VHH: EVQLVESGGGLVQPGGSLRLSCAASGRTSRSYGMGWYRQAPGKGRELVAGISWRGDSTGYADSVKGRFTISRDNAKNTLYLQMNSLRPEDTAVYYCAAAAGSAWYGTLYEYDYWGQGTLVTVSS
notes: PDB 7XL1) with the stated change; IMGT numbering; source: E. coli BL21(DE3), periplasmic fraction, purified (Ni-NTA, SEC)
Kd [1]: 482 nM | koff [1]: 0.152 s⁻¹ | kon [1]: 316000 M⁻¹ s⁻¹

B5: 7D12‐Vob Y42F‐L52F‐F106A (VHH)
VHH: B3 VHH with Y37F, L47F
notes: PDB 7XL1) with the stated changes; IMGT numbering; also called triple mutant; source: E. coli BL21(DE3), periplasmic fraction, purified (Ni-NTA, SEC)
Kd [1]: 38 nM | koff [1]: 0.0693 s⁻¹ | kon [1]: 1.82e+06 M⁻¹ s⁻¹

B6: 7D12‐Vob E1Q‐Y42F‐L52F‐F106A (VHH)
VHH: B3 VHH with E1Q, Y37F, L47F
notes: PDB 7XL1) with the stated changes; IMGT numbering; also called quadruple mutant; source: E. coli BL21(DE3), periplasmic fraction, purified (Ni-NTA, SEC)
Kd [2]: 4.7 nM

B7: 7D12‐Vob (VHH)
VHH: B3 VHH with A98F
notes: CDRs of 7D12 grafted onto the framework regions of Vobarilizumab; PDB 7XL1; also called chimeric VHH; source: E. coli BL21(DE3), periplasmic fraction, purified (Ni-NTA, SEC)
Kd [3]: 1450 nM | koff [3]: 0.247 s⁻¹ | kon [3]: 169000 M⁻¹ s⁻¹

Now from value to binder:

Kd [1]: 191 nM | koff [1]: 0.137 s⁻¹ | kon [1]: 713000 M⁻¹ s⁻¹
B1: 7D12‐Vob Y42F (VHH)
VHH: B3 VHH with Y37F, A98F
notes: as for B3

Kd [1]: 358 nM | koff [1]: 0.123 s⁻¹ | kon [1]: 344000 M⁻¹ s⁻¹
B2: 7D12‐Vob L52F (VHH)
VHH: B3 VHH with L47F, A98F
notes: as for B3

Kd [1]: 110 nM | koff [1]: 0.0799 s⁻¹ | kon [1]: 729000 M⁻¹ s⁻¹
B4: 7D12‐Vob Y42F‐L52F (VHH)
VHH: B3 VHH with Y37F, L47F, A98F
notes: PDB 7XL1) with the stated changes; IMGT numbering; source: E. coli BL21(DE3), periplasmic fraction, purified (Ni-NTA, SEC)
